# Experimental data from patent US8343490B2, “Monoclonal antibody SC104 and derivative thereof specifically binding to a sialyltetraosyl carbohydrate as a potential anti-tumor therapeutic agent” (Cephalon Australia Pty Ltd, priority 2004, dated 2013).
# Where “and” joins values, the source holds several entries; their conditions need not be identical. Identical values can stand only once.
# Experiments:
# [1] = system: freshly disaggregated colorectal tumour cells; experiment: Primary tumour binding, flow cytometry
# Protocol: • Primary tumour binding. Tumour specimens were obtained at the time of colorectal cancer resection. Specimens were finely minced and disaggregated with 0.05% collagenase (Type IV, Boehringer Mannheim, Lewes, UK) for 20 min at 37° C. The tumour cell suspension was removed and washed 3 times in Hanks balanced salt solution (Gibco BRL, Paisley, UK). Fresh collagenase was added to the remaining tissue and it was reincubated for a further 20 min. This procedure was repeated twice before combining cells from all dissociations and resuspending them in Dulbecco's medium containing 20% fetal calf serum (Gibco). Cells were incubated for 1 hr at 4° C. with SC104 mab (1 μg). […] Normal mouse immunoglobulin was used as a negative control and this fluorescence was subtracted from the fluorescence obtained with SC104. […] Results are expressed as mean linear fluorescence (MLF). […] The percentage of epithelial cells is measured by staining of cytokeratin mab Cam 5.2. was only 22±13% (range 10-60). However, following forward angle light scatter gating to selectively analyse cells in the malignant cell size range 79±4% (range 69-86) of the cells analysed were epithelial. […] The percentage of leukocytes as measured by staining with the anti-CD45 mab F-10-89 in the total nucleate population was 74±16 (range 40-90). […]
# [2] = system: colorectal tumour extranuclear membranes; experiment: ELISA on extranuclear membranes of colorectal tumour; format: binding; details: one line per patient (1-7)
# Protocol: • Tumour and normal membrane extract binding. Extranuclear extractions of colorectal and normal colonic membranes were produced and binding of SC104 was assayed by ELISA. Results
# C170 xenografts = experiment: C170 xenograft therapeutic model; format: in vivo, nude mice; details: administered therapeutically, after C170 xenograft implantation; FIG. 27
# Protocol: Therapeutic model. The colorectal tumour cell line, C170 was maintained in serial passage in nude mice. For therapy the mice were sacrificed and the tumours excised. The tumour was finely minced and […] pieces were implanted, under anaesthetic, subcutaneously into 30 male mice which had been randomly allocated to 4 experimental groups.
# Mice were explanted with 3 mm^3 pieces of C170 xenografts. […] On the same days mice were also injected intraperitonealy with 0.2 mg of SC104 mab. Control mice received either SC104 alone or control mouse IgG antibody with 5FU/leucovorin. Tumour size was measured by callipers and tumour cross sectional area calculated on days 12, 16, 19 and 23.
# [3] = system: frozen tumour tissue sections; experiment: Immunohistochemistry staining of frozen tumour tissue sections; format: binding, Human
# Protocol: • Immunohistochemistry staining of normal and tumour tissues. Human tissues were obtained from an Inveresk approved supplier. Each tissue used was snap frozen in liquid nitrogen and stored at approximately −70° C. (±10° C.). Cryostat sections were cut and placed onto super frost plus slides. All tissue samples were treated with an antigen marker appropriate for each tissue in order to confirm the preservation of antigens in that tissue. The markers used were keratin for epithelial bearing tissues, CD45 for all lymphoid tissues, and desmin for all cardiac and skeletal muscle. Each tissue was examined from three unrelated donors. The method of staining employed was an indirect, 2 or 3-stage method, using secondary and tertiary antibodies together with an avidin-biotin-peroxidase complex. Endogenous peroxidase activity was blocked using hydrogen peroxide. Endogenous biotin was blocked by treating all tissue sections with a sequence of avidin-biotin. When a tertiary antibody was used, all tissue sections were treated with normal swine serum, which inhibits the binding of tertiary antibodies to the tissues. Validation of the immunohistochemical staining method was determined by staining on positive control tissues, the absence on negative controls and the effect of fixation on staining of control tissues. SC104 was tested against 6 donors of colon tumour and one of heart at concentrations of […]. Tissues were fixed in either acetone or neutral buffered formalin. Two samples of colon tumour stained well enough for use as a positive control and there was no staining in heart. […] The lowest concentration of SC104 giving the maximum staining intensity was 1 μg/ml and this concentration was used for subsequent work. Results
# colorectal tumours = experiment: Binding to colorectal tumours (summary statement)
# C170 tumour cells = experiment: Annexin/PI dual colour flow cytometry; format: cell-based; details: concentration greater than 10 μg/ml; cells in suspension
# Excerpt: Annexin/PI. Tumour cells ([…]) or appropriate controls for 4 hr at room temperature could then also be stained with FITC labelled annexin and propidium iodide (Sigma, Poole, Dorset) and then analysed by dual colour flow cytometry.
molecule,measurement,setting,value
"SC104: mouse IgG1 monoclonal antibody specific for a sialyltetraosyl carbohydrate, raised by immunisation with colorectal cancer cell lines (antibody, V domains shown) VH: DVQLQESGPDLVKPSQSLSLTCTVTGYSITSGYSWHWVRQFPGNKMEWMGHIHFSGRPTYNPSLSSRISITRDTSKNQFLLQLKFVTTEDTSTYFCARKGKGSDDGLNYWGQGISVTVSS VL: ENVLTQSPVIMSASPGEKVTMTCSASSSLSYIHWYQQKSRTSPKLWIYDTSNLASGVPGRFSGSGSGNSYSLTISSMEAEDVATYYCFQGSEYPLTFGGGTKLEMT",freshly disaggregated colorectal tumour cells bound strongly,[1]; FIG. 3,> 80%
same,mean antigen density,[1]; freshly disaggregated colorectal tumour cells,4×10^5 antigens per cell
same,Binding of SC104 mab to extranuclear membranes: Colorectal Tumour,[2],0.221 and 0.278 and 0.196 and 0.281 and 0.102 and 0.001 and 0.437
same,inhibition of tumour growth,C170 xenografts,neither 5FU nor SC104 alone significantly inhibited growth
same,Immunoreactivity with frozen tissue sections (binding),[3]; Tumours: Breast,3/6
same,Immunoreactivity with frozen tissue sections (binding),[3]; Tumours: Colon,8/8
same,Immunoreactivity with frozen tissue sections (binding),[3]; Tumours: Endometrial,2/2
same,Immunoreactivity with frozen tissue sections (binding),[3]; Tumours: Lung,0
same,Immunoreactivity with frozen tissue sections (binding),[3]; Tumours: Oesophageal,4/4
same,Immunoreactivity with frozen tissue sections (binding),[3]; Tumours: Ovary,0
same,Immunoreactivity with frozen tissue sections (binding),[3]; Tumours: Parotid,2/2
same,Immunoreactivity with frozen tissue sections (binding),[3]; Tumours: Prostate,0
same,Immunoreactivity with frozen tissue sections (binding),[3]; Tumours: Renal,0
same,Immunoreactivity with frozen tissue sections (binding),[3]; Tumours: Stomach,4/4
same,Immunoreactivity with frozen tissue sections (binding),[3]; Tumours: Testes,0/1
same,lowest concentration giving the maximum staining intensity,"[3]; colon tumour positive control, neutral buffered formalin",1 µg/mL
same,colorectal tumours bound,colorectal tumours,71%
same,cells staining with PI,C170 tumour cells,75%
same,cells staining with annexin,C170 tumour cells,30%
same,cells staining with both annexin and PI,C170 tumour cells,65%
